According to patent publication US20070025968A1, “Methods for selecting and producing T cell peptide epitopes and vaccines incorporating said selected epitopes” (priority 1996, published 2007):

Target: other cell components, including other HLA class I alleles, of the B-LCL lines

Question: With “FL-labeled HLA-A*0301 reference peptide KVFPC(FL)ALINK” as the substance, how does the relative peptide-binding percentage read?
Answer: The relative peptide-binding percentage was under 20%.
